1 molecule from paper PMC10502657 (Advanced Science, 2023) can be followed below.

The target in one experiment is T1, Flag–USP7 (UniProt Q93009 1-1102).
T1 construct: ubiquitin-specific protease 7 (USP7); also called Flag-tagged USP7; source: HEK293T, transfected, in lysate
Nature of the experiment: pull-down; GST-fusion proteins immobilised on glutathione beads incubated with purified Flag-tagged proteins in 50 mM Tris-HCl pH 7.4, 150 mM NaCl, 0.5% Triton X-100 for 4 h at 4 °C; western blot. Particulars: both partners purified.

Another experiment concerns the target T2, Flag–p53 (UniProt P04637 1-393).
T2 construct: p53; also called Flag-tagged p53; source: HEK293T, transfected, in lysate
The experiment is described as above. The following applies: both partners purified.

T1 sequence (Q93009 whole entry): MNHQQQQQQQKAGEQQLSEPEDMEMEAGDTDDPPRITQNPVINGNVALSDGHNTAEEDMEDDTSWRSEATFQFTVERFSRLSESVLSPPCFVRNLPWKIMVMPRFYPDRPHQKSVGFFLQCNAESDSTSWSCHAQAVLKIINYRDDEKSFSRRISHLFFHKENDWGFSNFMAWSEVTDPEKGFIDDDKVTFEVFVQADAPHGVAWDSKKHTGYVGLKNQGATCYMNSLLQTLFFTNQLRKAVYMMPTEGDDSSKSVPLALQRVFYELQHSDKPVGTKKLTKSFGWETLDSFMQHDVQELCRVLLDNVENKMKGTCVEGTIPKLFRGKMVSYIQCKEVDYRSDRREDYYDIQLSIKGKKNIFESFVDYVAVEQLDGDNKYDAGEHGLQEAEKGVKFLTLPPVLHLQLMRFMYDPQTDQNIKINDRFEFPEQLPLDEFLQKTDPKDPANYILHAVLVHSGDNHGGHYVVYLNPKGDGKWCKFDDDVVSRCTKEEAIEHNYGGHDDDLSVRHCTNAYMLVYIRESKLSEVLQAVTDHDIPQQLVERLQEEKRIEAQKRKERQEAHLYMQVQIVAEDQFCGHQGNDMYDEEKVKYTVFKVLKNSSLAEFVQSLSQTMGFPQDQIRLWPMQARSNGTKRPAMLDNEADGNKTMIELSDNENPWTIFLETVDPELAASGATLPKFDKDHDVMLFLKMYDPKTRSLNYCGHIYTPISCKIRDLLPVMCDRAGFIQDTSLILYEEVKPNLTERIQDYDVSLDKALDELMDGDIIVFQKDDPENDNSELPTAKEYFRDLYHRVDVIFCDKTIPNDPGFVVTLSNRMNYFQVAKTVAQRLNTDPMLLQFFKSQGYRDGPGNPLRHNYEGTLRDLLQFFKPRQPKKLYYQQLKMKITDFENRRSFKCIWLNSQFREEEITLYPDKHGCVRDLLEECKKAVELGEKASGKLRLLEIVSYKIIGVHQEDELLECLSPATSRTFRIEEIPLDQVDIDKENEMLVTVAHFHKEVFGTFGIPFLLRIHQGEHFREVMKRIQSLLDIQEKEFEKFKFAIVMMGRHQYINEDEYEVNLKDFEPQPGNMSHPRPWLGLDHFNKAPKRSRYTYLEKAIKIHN
T2 sequence (P04637 whole entry): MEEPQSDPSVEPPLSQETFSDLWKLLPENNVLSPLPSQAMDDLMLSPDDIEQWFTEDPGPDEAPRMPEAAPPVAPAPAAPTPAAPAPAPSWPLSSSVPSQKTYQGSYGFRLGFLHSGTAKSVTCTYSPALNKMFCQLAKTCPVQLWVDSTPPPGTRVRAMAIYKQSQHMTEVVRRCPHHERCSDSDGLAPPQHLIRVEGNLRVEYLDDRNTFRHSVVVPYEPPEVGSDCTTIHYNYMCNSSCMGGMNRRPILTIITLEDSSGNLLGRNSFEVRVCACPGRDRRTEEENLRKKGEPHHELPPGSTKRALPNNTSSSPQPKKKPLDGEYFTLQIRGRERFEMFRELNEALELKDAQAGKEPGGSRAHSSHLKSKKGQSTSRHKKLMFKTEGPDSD

B1: GST–MLF2 (natural protein, UniProt Q15773 1-248, looked up)
chain: MFRFMRDVEPEDPMFLMDPFAIHRQHMSRMLSGGFGYSPFLSITDGNMPGTRPASRRMQQAGAVSPFGMLGMSGGFMDMFGMMNDMIGNMEHMTAGGNCQTFSSSTVISYSNTGDGAPKVYQETSEMRSAPGGIRETRRTVRDSDSGLEQMSIGHHIRDRAHILQRSRNHRTGDQEERQDYINLDESEAAAFDDEWRRETSRFRQQRPLEFRRLESSGAGGRRAEGPPRLAIQGPEDSPSRQSRRYDW
notes: myeloid leukemia factor 2 (MLF2); also called glutathione-S-transferase (GST) tagged MLF2
As to B1, the binding result with Flag–USP7 and in the experiment with Flag–p53 was “binds” in each case.
